From publication PMC5097169, “Acetylation of histone H4 lysine 5 and 12 is required for CENP-A deposition into centromeres” (Nature Communications, 2016) come the findings set out here.

In this test the target is T1, Flag RbAp46 (Xenopus, recombinant) (Xenopus, UniProt Q8AVH1 1-425).
T1 construct: RbAp46, Xenopus (xRbAp46); also called xRbAp46
In words: pull-down; GST-histone tails coupled to NHS Sepharose (20 μl resin) with 0.7 μg Hat1, RbAp46 or RbAp48, or RbAp46 with Hat1, in 150 μl 20 mM K-HEPES pH 7.4, 50 mM KCl, 0.1% Tween-20, 5 mM DTT; 2 h at 4 °C; washes with 300 mM KCl; coomassie-stained gel. Particulars: both partners purified.

T1 sequence (Q8AVH1 whole entry): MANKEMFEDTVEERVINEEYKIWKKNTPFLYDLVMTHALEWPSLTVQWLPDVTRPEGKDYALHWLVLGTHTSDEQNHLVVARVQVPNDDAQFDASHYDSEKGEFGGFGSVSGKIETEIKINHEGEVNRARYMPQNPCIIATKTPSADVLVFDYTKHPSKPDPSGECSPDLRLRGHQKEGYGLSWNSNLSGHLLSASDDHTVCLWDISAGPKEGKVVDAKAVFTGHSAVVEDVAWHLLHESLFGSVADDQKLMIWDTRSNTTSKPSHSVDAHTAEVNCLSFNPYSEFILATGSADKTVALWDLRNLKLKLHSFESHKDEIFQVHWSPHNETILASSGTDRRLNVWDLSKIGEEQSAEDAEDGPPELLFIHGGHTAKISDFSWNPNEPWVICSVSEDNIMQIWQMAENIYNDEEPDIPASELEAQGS

B1: GST fusion to Xenopus laevis CENP-A amino terminus (amino acids 1–50) (domain or fragment, UniProt Q569M3 1-50, looked up)
chain: MRPGSTPPSRRKSRPPRRVSPPLPTTSRTSPRRPHAQQQRRASRASPKKR
notes: CENP-A, Xenopus laevis, amino terminus, amino acids 1–50, in pGEX-6P-1; also called GST-CENP-A N-terminal tail; xCENP-A N-terminus
Regarding B1, the binding result is on record as “binds”.
